According to patent US20220064321A1 (published 2022):
Values belong to the binder of their own block, whether it stands above or below them.

What was measured:
[1] = target: T1, FcγRIIIa(V158) (Sino Biological Inc, 10389-H08C1) (UniProt P08637 17-208); test: binding ELISA; His-tagged FcγRIIIa captured by anti-His antibody, IgG pre-complexed with goat F(ab')2 anti-human-κ (value in the text differs from Table 4)
T1 construct: also called Fc gamma receptor IIIa
Description: (§1) High protein binding Costar 96-well plates were coated with anti-His antibody (Genscript, A00186) (1 μg/ml, 100 μl/well) in a coating buffer (0.05 M sodium carbonate buffer, pH 9.6) overnight at 4° C. The wells were washed twice with PBS/0.05% Tween 20 (pH 7.4). The plates were blocked with 5% Non-Fat Milk Powder/PBS (pH 7.4) for 1.5 hours at 37′C. Plates were washed and FcγRIIIa (Sino Biological Inc, 10389-H08C1) (1 μg/ml, 100 μl/well) in PBS/0.05% Tween 20, pH 7.4 (assay buffer) was added to the plates. Antibodies were pre-incubated with goat F(ab′)₂anti-human-κ antibody (Sigma) at a 1:2 (w/w) ratio in assay buffer for 1 h to form complex to increase binding avidity. […] After a 2 h incubation, plates were washed and bound IgG was detected by adding horseradish peroxidase (HRP)) labeled goat F(ab′)2 anti-human IgG F(ab′)2 (Sigma). After a final 1 hour incubation, plates were washed and the substrate 3,3′,5,5′-tetramethyl benzidine (TMB) (InnoReagents) was added. The reaction was stopped by adding 1 M phosphoric acid, and the OD was measured at 450 nm using a microplate reader Spectra MAX I3 (Molecular Devices).

[2] = target: T1, FcγRIIIa(V158) (Sino Biological Inc, …); test: binding ELISA; His-tagged FcγRIIIa captured by anti-His antibody, IgG pre-complexed with goat F(ab')2 anti-human-κ, HRP anti-human F(ab')2 detection
Description: as §1

[3] = target: CD16a on effector cells NK92MI-CD16a (UniProt P08637 17-254, limits assumed); test: cell-based or functional assay
Sequence of CD16a on effector cells NK92MI-CD16a (P08637 17-254 limits assumed): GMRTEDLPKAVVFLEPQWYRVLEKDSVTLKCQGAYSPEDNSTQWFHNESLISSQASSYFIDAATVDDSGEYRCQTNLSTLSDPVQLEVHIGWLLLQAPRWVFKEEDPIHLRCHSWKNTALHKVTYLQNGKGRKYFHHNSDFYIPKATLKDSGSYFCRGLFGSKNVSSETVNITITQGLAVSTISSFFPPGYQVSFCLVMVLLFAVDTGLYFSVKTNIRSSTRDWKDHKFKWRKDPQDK

T1 sequence (P08637 17-208 F176V limits assumed): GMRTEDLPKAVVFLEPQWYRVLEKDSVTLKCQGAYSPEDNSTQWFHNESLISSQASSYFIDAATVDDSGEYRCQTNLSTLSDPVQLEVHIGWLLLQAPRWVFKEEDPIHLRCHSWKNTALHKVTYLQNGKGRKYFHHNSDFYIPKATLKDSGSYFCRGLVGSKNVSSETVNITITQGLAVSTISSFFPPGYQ

EC50 [1]: 0.055 µg/mL
EC50 [2]: 0.052 µg/mL
ADCC Target cell: Daudi, EC50 [3]: 0.0488 ng/mL
ADCC Target cell: Raji, EC50 [3]: 0.00738 ng/mL
B1: anti-CD20 antibody MIL62 (antibody, human IgG1, kappa)
light: DIVMTQTPLSLPVTPGEPASISCRSSKSLLHSNGITYLYWYLQKPGQSPQLLIYQMSNLVSGVPDRFSGSGSGTDFTLKISRVEAEDVGVYYCAQNLELPYTFGGGTKVEIKRTVAAPSVFIFPPSDEQLKSGTASVVCLLNNFYPREAKVQWKVDNALQSGNSQESVTEQDSKDSTYSLSSTLTLSKADYEKHKVYACEVTHQGLSSPVTKSFNRGEC
heavy: not shown
modifications: N-glycans on the Fc region, not bisected by N-acetylglucosamine; core-fucosylated glycans 0.43% in the example batch (made in CHOK1-AF cells, Slc35c1 knocked out)
notes: In the FcγRIIIa ELISA the IgG was pre-complexed with goat F(ab')2 anti-human-κ antibody at 1:2 (w/w); also called MIL62 antibody; humanized anti-CD20 antibody of the present invention

EC50 [2]: 0.113 µg/mL
ADCC Target cell: Daudi, EC50 [3]: 0.111 ng/mL
ADCC Target cell: Raji, EC50 [3]: 0.0143 ng/mL
B2: GAZYVA® (obinutuzumab) (antibody, human IgG1, kappa)
light: B1 light
heavy: not shown
modifications: N-glycans on the Fc region, more than 76% bisected by GlcNAc; core-fucosylated glycans 48.03% in the example batch
notes: In the FcγRIIIa ELISA the IgG was pre-complexed with goat F(ab')2 anti-human-κ antibody; also called afutuzumab; GA101
